Positions count from the first letter of the chain named.
B1: CD166-M9_vk3a/HcB (antibody, V domains shown)
VH: QITLKESGPTLVKPTQTLTLTCTFSGFSLSTYGMGVGWIRQPPGKALEWLANIWWSEDKHYSPSLKSRLTITKDTSKNQVVLTMTNMDPVDTATYYCVQIDYGNDYAFTYWGQGTLVTVSS
VL: DIVMTQSPLSLPVTPGEPASISCRSSQSLLHSNGITYLYWYLQKPGQSPQLLIYQMSNRASGVPDRFSGSGSGTDFTLKISRVEAEDVGVYYCAQNLELPYTFGQGTKLEIK
B2: CD166-M9_vK2/HcC (antibody, V domains shown)
VH: B1 VH with M84I, M87V
VL: B1 VL with Q27K, R59L, G69S
B3: CD166-M9_vK3a/HcC (antibody, V domains shown)
VH: B1 VH with M84I, M87V
VL: B1 VL
B4: CD166-M9_vK3b/HcC (antibody, V domains shown)
VH: B1 VH with M84I, M87V
VL: B1 VL with G69S
B5: CD166-M9_vK3b/HcB (antibody, V domains shown)
VH: B1 VH
VL: B1 VL with G69S
B6: human CD166 (receptor)
chain: WYTVNSAYGDTIIIPCRLDVPQNLMFGKWKYEKPDGSPVFIAFRSSTKKSVQYDDVPEYKDRLNLSENYTLSISNARISDEKRFVCMLVTEDNVFEAPTIVKVFKQPSKPEIVSKALFLETEQLKKLGDCISEDSYPDGNITWYRNGKVLHPLEGAVVIIFKKEMDPVTQLYTMTSTLEYKTTKADIQMPFTCSVTYYGPSGQKTIHSEQAVFDIYYPTEQVTIQVLPPKNAIKEGDNITLKCLGNGNPPPEEFLFYLPGQPEGIRSSNTYTLTDVRRNATGDYKCSLIDKKSMIASTAITVHYLDLSLNPSGEVTRQIGDALPVSCTISASRNATVVWMKDNIRLRSSPSFSSLHYQDAGNYVCETALQEVEGLKKRESLTLIVEGKPQIKMTKKTDPSGLSKTIICHVEGFPKPAIQWTITGSGSVINQTEESPYINGRYYSKIIISPEENVTLTCTAENQLERTVNSLNVSAISIPEHDEADEISDENREKVNDQA

Biological target: T1, human CD166 protein (human, UniProt Q13740 28-526)
T1 chain: B6 chain
Experiment: FACS; apparent Kd

Row | Binder | Kd
1 | B1 | 2.88 nM
2 | B2 | 2.5 nM
3 | B3 | 3.76 nM
4 | B4 | 3.19 nM
5 | B5 | 2.61 nM

biological target: CD166-M9_chimera; experiment: FACS; apparent Kd

Row | Binder | Kd
6 | B6 | 1.12 nM

— US20160355587A1 (published 2016)
